Here are results for two molecules from publication PMC3578099 (Journal of structural biology, 2013).

Assay [1] addresses T1, SHP-1 C453S catalytic domain (residues 243–530) (human, UniProt P29350 243-530, C453S). Nature of the assay: ITC.
The target of assay [2] is T1, SHP-1 C453S catalytic domain (residues …). The assay can be described thus: ITC. This is another data set of the same source. On the technique in general: Isothermal titration calorimetry measures the heat released or taken up as one component is titrated into another.

Like-named read-outs stand apart in the source and are kept apart here. Square brackets hold non-standard residues; d marks the D form. Ends that are not written are not given here. pY = N[C@@H](Cc1ccc(OP(=O)(O)O)cc1)C(=O)O

T1 sequence (P29350 243-530 C453S): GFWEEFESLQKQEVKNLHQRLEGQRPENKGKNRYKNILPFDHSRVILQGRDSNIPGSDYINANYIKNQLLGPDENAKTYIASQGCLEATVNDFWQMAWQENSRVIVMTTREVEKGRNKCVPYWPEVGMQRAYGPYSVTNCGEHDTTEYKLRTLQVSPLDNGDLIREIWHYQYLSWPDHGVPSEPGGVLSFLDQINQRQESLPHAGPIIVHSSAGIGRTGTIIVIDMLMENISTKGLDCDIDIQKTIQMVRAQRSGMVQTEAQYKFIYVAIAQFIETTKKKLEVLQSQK

One may read the Kd as the equilibrium constant for the complex coming apart. What is called stoichiometry N is the number of molecules, sites or subunits per partner or assembly. For ETDKEY[pY]TVKD [JAK1 activation loop phosphopeptide E1029TDKEYpYTVKD], in assay [1], the Kd turned out to be 5.6 ± 1.1 µM, the dH is -21.5 ± 3.5 kcal/mol and the “stoichiometry N” value was determined as 0.9.
With ETDKE[pY]YTVKD [JAK1 activation loop phosphopeptide E1029TDKEpYYTVKD], in assay [1], binding was put at a Kd of 13.7 ± 1.4 µM, the dH is -28.7 ± 7.3 kcal/mol and the “stoichiometry N” value came to 0.7. Further, the Kd in assay [2] came out at 13.4 µM.
